The source of these data is PMC9454698.

The target in the assay is stanniocalcin 2 (STC2), recombinant (mouse) (UniProt O88452). Kind of assay: quartz crystal microbalance (QCM); STC2 (50 µg/mL) immobilised by amine coupling on LNB chip, Attana Cell 200; HRG injected at 50, 100 and 200 nM; PBS running buffer, 10 µL/min, 22 °C, 500 s dissociation; 1:1 global interaction model.

What is called Kd is the free concentration of one partner at which half of the binding sites on the other are occupied at equilibrium, for simple one-to-one binding. The koff is the first-order rate constant of dissociation. The kon is the second-order rate constant of association.

Chain of UniProt O88452 (O88452 25-296): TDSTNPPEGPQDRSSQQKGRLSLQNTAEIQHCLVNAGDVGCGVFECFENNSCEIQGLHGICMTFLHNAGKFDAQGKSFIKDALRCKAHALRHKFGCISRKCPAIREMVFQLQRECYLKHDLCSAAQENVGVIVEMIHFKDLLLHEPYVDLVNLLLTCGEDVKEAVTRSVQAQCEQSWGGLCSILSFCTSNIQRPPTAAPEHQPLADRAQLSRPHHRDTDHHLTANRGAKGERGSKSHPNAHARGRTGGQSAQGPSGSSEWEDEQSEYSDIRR

As to “histidine-rich glycoprotein (HRG), recombinant, active (from UniProt Q9ESB3 19-525) (natural protein)”, the equilibrium dissociation constant (Kd) turned out to be 55 nM, the koff was determined as 0.0014 s⁻¹ and the kon turned out to be 26000 M⁻¹ s⁻¹.
